B1: Short transient receptor potential channel 3 (Homo sapiens), Q13507 (parent)
chain: MSTKVRKCKEQARVTFPAPEEEEDEGEDEGAEPQRRRRGWRGVNGGLEPRSAPSQREPHGYCPPPFSHGPDLSMEGSPSLRRMTVMREKGRRQAVRGPAFMFNDRGTSLTAEEERFLDAAEYGNIPVVRKMLEESKTLNVNCVDYMGQNALQLAVGNEHLEVTELLLKKENLARIGDALLLAISKGYVRIVEAILNHPGFAASKRLTLSPCEQELQDDDFYAYDEDGTRFSPDITPIILAAHCQKYEVVHMLLMKGARIERPHDYFCKCGDCMEKQRHDSFSHSRSRINAYKGLASPAYLSLSSEDPVLTALELSNELAKLANIEKEFKNDYRKLSMQCKDFVVGVLDLCRDSEEVEAILNGDLESAEPLEVHRHKASLSRVKLAIKYEVKKFVAHPNCQQQLLTIWYENLSGLREQTIAIKCLVVLVVALGLPFLAIGYWIAPCSRLGKILRSPFMKFVAHAASFIIFLGLLVFNASDRFEGITTLPNITVTDYPKQIFRVKTTQFTWTEMLIMVWVLGMMWSECKELWLEGPREYILQLWNVLDFGMLSIFIAAFTARFLAFLQATKAQQYVDSYVQESDLSEVTLPPEIQYFTYARDKWLPSDPQIISEGLYAIAVVLSFSRIAYILPANESFGPLQISLGRTVKDIFKFMVLFIMVFFAFMIGMFILYSYYLGAKVNAAFTTVEESFKTLFWSIFGLSEVTSVVLKYDHKFIENIGYVLYGIYNVTMVVVLLNMLIAMINSSYQEIEDDSDVEWKFARSKLWLSYFDDGKTLPPPFSLVPSPKSFVYFIMRIVNFPKCRRRRLQKDIEMGMGNSKSRLNLFTQSNSRVFESHSFNSILNQPTRYQQIMKRLIKRYVLKAQVDKENDEVNEGELKEIKQDISSLRYELLEDKSQATEELAILIHKLSEKLNPSMLRCE
partner: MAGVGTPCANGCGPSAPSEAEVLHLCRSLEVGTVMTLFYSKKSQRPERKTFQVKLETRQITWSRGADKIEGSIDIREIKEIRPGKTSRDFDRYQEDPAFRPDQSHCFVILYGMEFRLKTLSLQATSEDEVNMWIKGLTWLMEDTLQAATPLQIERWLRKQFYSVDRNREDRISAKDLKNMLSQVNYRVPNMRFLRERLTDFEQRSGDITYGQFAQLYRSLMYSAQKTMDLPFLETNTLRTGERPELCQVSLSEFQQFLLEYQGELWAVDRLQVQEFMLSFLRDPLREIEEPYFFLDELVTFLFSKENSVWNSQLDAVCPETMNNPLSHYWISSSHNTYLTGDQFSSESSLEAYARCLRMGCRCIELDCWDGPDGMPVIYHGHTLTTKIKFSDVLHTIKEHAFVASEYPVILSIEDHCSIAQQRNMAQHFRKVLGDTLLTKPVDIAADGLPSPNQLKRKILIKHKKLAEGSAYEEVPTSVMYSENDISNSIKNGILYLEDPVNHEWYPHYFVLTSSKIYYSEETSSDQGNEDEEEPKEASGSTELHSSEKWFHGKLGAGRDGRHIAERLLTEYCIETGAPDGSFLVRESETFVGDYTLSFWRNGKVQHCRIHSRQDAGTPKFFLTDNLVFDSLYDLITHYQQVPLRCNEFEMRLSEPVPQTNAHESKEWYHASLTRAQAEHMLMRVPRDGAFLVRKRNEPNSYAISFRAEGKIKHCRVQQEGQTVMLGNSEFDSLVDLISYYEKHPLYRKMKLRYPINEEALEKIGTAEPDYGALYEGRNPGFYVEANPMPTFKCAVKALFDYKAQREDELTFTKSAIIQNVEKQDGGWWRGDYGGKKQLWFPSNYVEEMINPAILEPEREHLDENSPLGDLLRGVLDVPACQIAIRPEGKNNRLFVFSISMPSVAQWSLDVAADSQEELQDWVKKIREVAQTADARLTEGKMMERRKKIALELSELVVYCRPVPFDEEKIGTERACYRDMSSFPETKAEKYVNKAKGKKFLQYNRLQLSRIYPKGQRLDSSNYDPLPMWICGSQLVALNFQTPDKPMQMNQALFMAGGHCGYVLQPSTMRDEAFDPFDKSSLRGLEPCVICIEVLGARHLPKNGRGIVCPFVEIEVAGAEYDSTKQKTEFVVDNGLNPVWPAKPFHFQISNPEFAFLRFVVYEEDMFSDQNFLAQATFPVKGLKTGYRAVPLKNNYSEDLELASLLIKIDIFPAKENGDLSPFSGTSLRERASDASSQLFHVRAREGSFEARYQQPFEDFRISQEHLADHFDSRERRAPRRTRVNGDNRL

Variants of: B1
Conditions: with plcg1_rat Plcg1, P10686

Effect of a mutation on the interaction, decreasing interaction:
L117A
E113A
F116A

Source: IntAct's records for PubMed 15744307
